Experiments:
KB tumor xenografts = assay: KB tumor xenograft in nu/nu rats; format: in vivo; details: EC2629 0.15 µmol/kg iv SIW x 2 weeks
Experimental: Four- to eight-week-old female nu/nu mice and rats (Harlan Sprague Dawley, Inc.), were maintained on a standard 12-h light–dark cycle and fed ad libitum with a low-folate chow (Harlan Teklad diet #TD.01013, Madison, WI) for the duration of dosing and 1 week post dosing schedule. Mice and rats were then switched to Teklad Global 18% Rodent diet (Harlan Teklad diet #2018S) during the monitoring phase of the study. Parental KB, KB-CR2000 or KB-PR10 cells (1 × 10^6/100 µL per nu/nu mouse and 5 × 10^6/200 µL per nu/nu rat) were injected into the subcutis of the dorsal medial area. Mice were divided into groups of 5 and rats in groups of 3–4, and freshly prepared test articles were injected through the lateral tail vein under sterile conditions in a volume of 200 μL/20 g of PBS. […]
Animals in the control groups received no treatment. […] Tumors were measured in two perpendicular directions using Vernier calipers, and their volumes were calculated as V = 0.5 × L × W^2, where L = measurement of longest axis in mm and W = measurement of axis perpendicular to L in mm[16]. As a general measure of gross toxicity, changes in body weights were determined on the same schedule as tumor volume measurements. Survival of animals was monitored daily. […]

[1] = Plasma protein binding (ultrafiltration), rat; format: in vitro ADME; details: 37 °C
Experimental: Plasma ultrafiltration was used for determination of free and protein bound fractions of EC2629 and EC2491. Samples were extracted and analyzed using fit-for-purpose bioanalytical methods. Briefly, 500 nM EC2629 or EC2491 was spiked into plasma maintained at 37 °C prior to plasma ultrafiltration. Plasma spiked with 500 nM EC2629 or EC2491 was allowed to equilibrate at 37 °C for 30 min prior to processing. Next, 50 μL of plasma was transferred to a clean 1.2 mL plate stored at 2–8 °C for further processing. The remaining plasma sample volumes were transferred to 30 Kd MWCO PES filter to generate plasma ultrafiltrate by centrifugation at 10,000×g for 20 min. After which, 50 μL of each plasma ultrafiltrate was transferred to separate wells in a clean 1.2 mL plate. To all spiked plasma samples, 50 μL of blank plasma ultrafiltrate was added. 50 μL of blank plasma was added to all experimental ultrafiltrate samples. These blank matrix additions normalized the matrix effects for protein binding determination. Samples were then extracted using protein precipitation with a 3:1 ratio of acetonitrile after addition of internal standard. The supernatant transferred to a new plate, evaporated, and reconstituted prior to LC–MS/MS analysis.

Plasma stability, dog = format: in vitro ADME; details: 500 nM, 37 °C, 2 h
Experimental: Whole blood and plasma stability were determined for EC2629 and EC2491 at a concentration of 500 nM. Samples were extracted and analyzed using fit-for-purpose bioanalytical methods. EC2629 or EC2491 was spiked into 1 mL whole blood or plasma maintained at 37 °C for 30 min prior to use . Fifty µl aliquots were then removed at defined timepoints and stored in a 1.2 mL extraction plate prior to analysis. Samples were then extracted using protein precipitation with a 3:1 ratio of acetonitrile after addition of internal standard. The supernatant was then transferred to a new plate, evaporated, and reconstituted prior to LC–MS/MS analysis.

## C=C1C[C@H]2C=Nc3cc(OCCCCCOc4cc(N)c(C(=O)N5CC(=C)C[C@H]5C5OCCN5C(=O)OCC(C)(C)SSCCC(=O)NCCNC(=O)CCOCCOCCOCCOCCNC(=O)CCN5C(=O)CC(SC[C@H](NC(=O)[C@H](CC(=O)O)NC(=O)[C@H](CC(=O)O)NC(=O)[C@H](CCCNC(=N)N)NC(=O)[C@H](CC(=O)O)NC(=O)CC[C@H](NC(=O)c6ccc(NCc7cnc8nc(N)[nH]c(=O)c8n7)cc6)C(=O)O)C(=O)O)C5=O)cc4OC)c(OC)cc3C(=O)N2C1 (stereo partly drawn) [EC2629]
KB tumor xenografts
  body weight change: did not lose any significant weight
[1]
  fraction unbound at 30 min, 500 nM: 0.026
Plasma stability, dog
  plasma stability: stable

Reference: publication PMC7391724 (Scientific Reports, 2020)
